Experimental findings from paper PMC9757748 are described below.

The target in experiment [1] is BcsD (purified alone via a cleavable N-terminal hexahistidine tag, Bcs^H^isD) (G. hansenii). Kind of experiment: cryo-EM structure.
Experiment [2] concerns the target N-terminally hexahistidine-tagged full-length BcsH (Bcs^H^isH^FL) (G. hansenii). Kind of experiment: SDS-PAGE and Western blot.

Regarding “BcsD (purified alone via a cleavable N-terminal hexahistidine tag, Bcs^H^isD) (natural protein)”, the stoichiometry N in experiment [1] turned out to be 8. “N-terminally hexahistidine-tagged full-length BcsH (Bcs^H^isH^FL) (natural protein)” yielded a stoichiometry N in experiment [2] of 2.
